Entries after “also recorded” stand apart in the source; their conditions may differ. Each block holds one molecule with its values, some of them ahead of it.
Tests used:
[1] = biological target: T1, EHMT1 WT (Homo sapiens, UniProt Q9H9B1); assay: Trp fluorescence quenching titration of dimethylated histone H3 Lys9 peptide, WT EHMT1; type: binding; settings: WT EHMT1 1 μM; stepwise addition of peptide (36.3 μM); 2 min equilibration; 20 °C; λEx 295 nm, λEm 350 nm; midpoint of logistic function with Hill slope; read-out: apparent affinity
T1 construct: WT and p.P809L EHMT1 variant ankyrin domains expressed from Escherichia coli; His6 (N); made in house; host or cells: E. coli BL21 (DE3), pET vector
T1 sequence (Q9H9B1 765-1001 limits assumed): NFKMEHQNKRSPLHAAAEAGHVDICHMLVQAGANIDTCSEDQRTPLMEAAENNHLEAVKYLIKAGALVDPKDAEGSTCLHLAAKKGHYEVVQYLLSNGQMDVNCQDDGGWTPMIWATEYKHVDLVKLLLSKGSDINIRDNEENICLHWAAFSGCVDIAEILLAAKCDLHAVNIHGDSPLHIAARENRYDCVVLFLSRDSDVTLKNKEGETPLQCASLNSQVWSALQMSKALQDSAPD
Method: (§1) Circular dichroism spectra (Fig. 7, left panel) were recorded to study the effect of the p.P809L mutation on the secondary structure of EHMT1 and confirm the in silico predictions that the p.P809L variant causes abnormal protein folding. The far UV CD spectrum of EHMT1 is dominated by the α-helical content of the protein showing two characteristic minima at 222 and 208 nm. […] Lastly, because the ankyrin repeat domain of the EHMT1 is critical for binding to methylated histones to regulate gene expression, we also studied the interaction of EHMT1 and the p.P809L mutation with its dimethylated target, the histone H3K9 peptide, by monitoring the Trp fluorescence emission at 350 nm after excitation at 295 nm (Fig. 9, left panel).
FIGURE 9. Interaction of EHMT1 with the dimethylated histone H3 Lys^9 peptide. […] The change in fluorescence intensity was followed at λEm = 350 nm after excitation at λEx = 295 nm. […]
For experimental purposes, we produced and purified an N-terminal His6-tagged recombinant form of WT and the p.P809L EHMT1 proteins using the pET vector system (Novagen). […] Spectra in the far UV range (200–260 nm) for WT and p.P809L EHMT1 were recorded on an Aviv Biomedical Model 420SF circular dichroism spectrometer. […] Fluorescence measurements were performed at 20 °C on a Horiba Jobin-Yvon Fluorolog 3 spectrofluorometer equipped with a Wavelength Electronics LF1-3751 temperature controller. […]

[2] = intrinsic protein fluorescence emission spectra; type: physicochemical; settings: protein 1 μM, 20 °C; for λmax of fluorescence emission: excitation 280 and 295 nm, emission 310-440 nm
Method: as §1
FIGURE 8. Fluorescence emission spectra of WT EHMT1 and of p.P809L. Fluorescence emission spectra of WT EHMT1 (solid symbols and bars) and of p.P809L (open symbols and bars) were obtained. Spectra were recorded at 20 °C using a protein concentration of 1 μM. The excitation wavelengths (λEx) were 280 nm (circles; excitation of Trp and Tyr residues) and 295 nm (squares; selective excitation of Trp residues). […]
For experimental purposes, we produced and purified an N-terminal His6-tagged recombinant form of WT and the p.P809L EHMT1 proteins using the pET vector system (Novagen). […] Spectra in the far UV range (200–260 nm) for WT and p.P809L EHMT1 were recorded on an Aviv Biomedical Model 420SF circular dichroism spectrometer. […] Fluorescence measurements were performed at 20 °C on a Horiba Jobin-Yvon Fluorolog 3 spectrofluorometer equipped with a Wavelength Electronics LF1-3751 temperature controller. Fluorescence emission spectra of both proteins were recorded between 310 and 440 nm after excitation at 280 or 295 nm using a protein concentration of 1 μM in a 1-cm quartz cell. […] After equilibration for 2 min, the fluorescence signal was recorded and averaged for 20 s using an excitation wavelength of 295 nm for the selective excitation of Trp residues and an emission wavelength of 350 nm. […]

[3] = far UV circular dichroism spectroscopy; type: physicochemical; settings: far UV CD 200–260 nm, 20 °C; Bestsel deconvolution; compared with WT
Method: as §1
FIGURE 7. Impact of the p. P809L mutation on secondary structure. Left panel, far UV CD spectra of WT EHMT1 (●) and of p.P809L (○) were recorded at 20 °C, corrected by the signal of the buffer, and converted to mean ellipticity per amino acid residue (ϴ^MRW). […]
For experimental purposes, we produced and purified an N-terminal His6-tagged recombinant form of WT and the p.P809L EHMT1 proteins using the pET vector system (Novagen). […] Spectra in the far UV range (200–260 nm) for WT and p.P809L EHMT1 were recorded on an Aviv Biomedical Model 420SF circular dichroism spectrometer. […]

[4] = system: CDK4; settings: non-quantitative two-hybrid GAL4-based reporter assay; cited from earlier work
Text: (§2) Nevertheless, our study is the first to describe how mutations in any of the TPLX motifs of the EHMT1 ankyrin domain affect protein folding to induce a moderate change in its affinity for the H3K9me2 peptide. Thus, it becomes important to compare this information to other, better characterized mutations in ankyrin repeats that are known to be pathogenic in humans. […] Thus, this type of mutation ( ...

[5] = p.P81L mutation in TPLX motif of p16; cited from earlier work
Text: as §2

Kd [1]: 760 nM
Molecule: H3K9me2 peptide: dimethylated histone H3 Lys^9 peptide

B1: WT EHMT1: N-terminal His6-tagged recombinant form of WT EHMT1 (protein, UniProt Q9H9B1 2-1298, looked up)
Histone-lysine …: AAADAEAVPARGEPQQDCCVKTELLGEETPMAADEGSAEKQAGEAHMAADGETNGSCENSDASSHANAAKHTQDSARVNPQDGTNTLTRIAENGVSERDSEAAKQNHVTADDFVQTSVIGSNGYILNKPALQAQPLRTTSTLASSLPGHAAKTLPGGAGKGRTPSAFPQTPAAPPATLGEGSADTEDRKLPAPGADVKVHRARKTMPKSVVGLHAASKDPREVREARDHKEPKEEINKNISDFGRQQLLPPFPSLHQSLPQNQCYMATTKSQTACLPFVLAAAVSRKKKRRMGTYSLVPKKKTKVLKQRTVIEMFKSITHSTVGSKGEKDLGASSLHVNGESLEMDSDEDDSEELEEDDGHGAEQAAAFPTEDSRTSKESMSEADRAQKMDGESEEEQESVDTGEEEEGGDESDLSSESSIKKKFLKRKGKTDSPWIKPARKRRRRSRKKPSGALGSESYKSSAGSAEQTAPGDSTGYMEVSLDSLDLRVKGILSSQAEGLANGPDVLETDGLQEVPLCSCRMETPKSREITTLANNQCMATESVDHELGRCTNSVVKYELMRPSNKAPLLVLCEDHRGRMVKHQCCPGCGYFCTAGNFMECQPESSISHRFHKDCASRVNNASYCPHCGEESSKAKEVTIAKADTTSTVTPVPGQEKGSALEGRADTTTGSAAGPPLSEDDKLQGAASHVPEGFDPTGPAGLGRPTPGLSQGPGKETLESALIALDSEKPKKLRFHPKQLYFSARQGELQKVLLMLVDGIDPNFKMEHQNKRSPLHAAAEAGHVDICHMLVQAGANIDTCSEDQRTPLMEAAENNHLEAVKYLIKAGALVDPKDAEGSTCLHLAAKKGHYEVVQYLLSNGQMDVNCQDDGGWTPMIWATEYKHVDLVKLLLSKGSDINIRDNEENICLHWAAFSGCVDIAEILLAAKCDLHAVNIHGDSPLHIAARENRYDCVVLFLSRDSDVTLKNKEGETPLQCASLNSQVWSALQMSKALQDSAPDRPSPVERIVSRDIARGYERIPIPCVNAVDSEPCPSNYKYVSQNCVTSPMNIDRNITHLQYCVCIDDCSSSNCMCGQLSMRCWYDKDGRLLPEFNMAEPPLIFECNHACSCWRNCRNRVVQNGLRARLQLYRTRDMGWGVRSLQDIPPGTFVCEYVGELISDSEADVREEDSYLFDLDNKDGEVYCIDARFYGNVSRFINHHCEPNLVPVRVFMAHQDLRFPRIAFFSTRLIEAGEQLGFDYGERFWDIKGKLFSCRCGSPKCRHSSAALAQRQASAAQEAQEDGLPDTSSAAAADPL
modifications: N-terminal His6 tag
λmax of fluorescence emission [2]: ~350 nm

B2: p.P809L: N-terminal His6-tagged recombinant p.P809L EHMT1 variant (c.2426C>T) (protein, UniProt Q9H9B1 2-1298, looked up, variant P809L)
Histone-lysine …: AAADAEAVPARGEPQQDCCVKTELLGEETPMAADEGSAEKQAGEAHMAADGETNGSCENSDASSHANAAKHTQDSARVNPQDGTNTLTRIAENGVSERDSEAAKQNHVTADDFVQTSVIGSNGYILNKPALQAQPLRTTSTLASSLPGHAAKTLPGGAGKGRTPSAFPQTPAAPPATLGEGSADTEDRKLPAPGADVKVHRARKTMPKSVVGLHAASKDPREVREARDHKEPKEEINKNISDFGRQQLLPPFPSLHQSLPQNQCYMATTKSQTACLPFVLAAAVSRKKKRRMGTYSLVPKKKTKVLKQRTVIEMFKSITHSTVGSKGEKDLGASSLHVNGESLEMDSDEDDSEELEEDDGHGAEQAAAFPTEDSRTSKESMSEADRAQKMDGESEEEQESVDTGEEEEGGDESDLSSESSIKKKFLKRKGKTDSPWIKPARKRRRRSRKKPSGALGSESYKSSAGSAEQTAPGDSTGYMEVSLDSLDLRVKGILSSQAEGLANGPDVLETDGLQEVPLCSCRMETPKSREITTLANNQCMATESVDHELGRCTNSVVKYELMRPSNKAPLLVLCEDHRGRMVKHQCCPGCGYFCTAGNFMECQPESSISHRFHKDCASRVNNASYCPHCGEESSKAKEVTIAKADTTSTVTPVPGQEKGSALEGRADTTTGSAAGPPLSEDDKLQGAASHVPEGFDPTGPAGLGRPTPGLSQGPGKETLESALIALDSEKPKKLRFHPKQLYFSARQGELQKVLLMLVDGIDPNFKMEHQNKRSPLHAAAEAGHVDICHMLVQAGANIDTCSEDQRTLLMEAAENNHLEAVKYLIKAGALVDPKDAEGSTCLHLAAKKGHYEVVQYLLSNGQMDVNCQDDGGWTPMIWATEYKHVDLVKLLLSKGSDINIRDNEENICLHWAAFSGCVDIAEILLAAKCDLHAVNIHGDSPLHIAARENRYDCVVLFLSRDSDVTLKNKEGETPLQCASLNSQVWSALQMSKALQDSAPDRPSPVERIVSRDIARGYERIPIPCVNAVDSEPCPSNYKYVSQNCVTSPMNIDRNITHLQYCVCIDDCSSSNCMCGQLSMRCWYDKDGRLLPEFNMAEPPLIFECNHACSCWRNCRNRVVQNGLRARLQLYRTRDMGWGVRSLQDIPPGTFVCEYVGELISDSEADVREEDSYLFDLDNKDGEVYCIDARFYGNVSRFINHHCEPNLVPVRVFMAHQDLRFPRIAFFSTRLIEAGEQLGFDYGERFWDIKGKLFSCRCGSPKCRHSSAALAQRQASAAQEAQEDGLPDTSSAAAADPL
modifications: N-terminal His6 tag
α-helical content [3]: reduced α-helical content; also recorded: decrease in the α-helical content
fluorescence emission (intensity) ([2]; compared with wild type protein): decrease of the fluorescence emission
λmax of fluorescence emission [2]: 347 nm

B3: p.P81L p16: p.P81L mutation in the TPLX motif within the ankyrin repeat of the tumor suppressor p16 (protein, UniProt P42771 1-156, looked up, variant P81L)
Cyclin-dependent kinase …: MEPAAGSSMEPSADWLATAAARGRVEEVRALLEAGALPNAPNSYGRRPIQVMMMGSARVAELLLLHGAEPNCADPATLTRLVHDAAREGFLDTLVVLHRAGARLDVRDAWGRLPVDLAEELGHRDVARYLRAAAGGTRGSNHARIDAAEGPSDIPD
interaction with CDK4 [4]: impaired interaction with CDK4
secondary structure [5]: secondary structure alterations

Reference: article PMC5339767, “A Novel Kleefstra Syndrome-associated Variant That Affects the Conserved TPLX Motif within the Ankyrin Repeat of EHMT1 Leads to Abnormal Protein Folding” (The Journal of Biological Chemistry, 2017)
